Experiment [1] concerns the target T1, CD73 protein on the surface of tumor cells (human, UniProt P21589 27-549).
T1 sequence (looked up): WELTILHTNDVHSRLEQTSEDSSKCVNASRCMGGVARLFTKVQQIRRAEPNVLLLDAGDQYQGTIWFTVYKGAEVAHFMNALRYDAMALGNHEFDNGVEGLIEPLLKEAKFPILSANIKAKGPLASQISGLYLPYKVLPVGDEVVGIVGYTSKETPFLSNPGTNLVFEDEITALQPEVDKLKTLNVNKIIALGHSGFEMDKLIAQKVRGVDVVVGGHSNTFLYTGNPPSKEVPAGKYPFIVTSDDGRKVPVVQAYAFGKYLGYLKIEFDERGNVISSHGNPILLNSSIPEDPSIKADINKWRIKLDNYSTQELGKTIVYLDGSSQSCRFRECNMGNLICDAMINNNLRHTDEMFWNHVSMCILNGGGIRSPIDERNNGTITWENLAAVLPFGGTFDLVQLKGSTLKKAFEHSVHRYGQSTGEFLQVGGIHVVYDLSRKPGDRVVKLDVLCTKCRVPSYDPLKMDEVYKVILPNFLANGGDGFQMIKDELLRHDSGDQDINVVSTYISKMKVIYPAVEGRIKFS
Description: cell-based or functional assay.

The target in experiment [2] is T2, human CD73-His protein (human, UniProt P21589 27-549).
T2 sequence: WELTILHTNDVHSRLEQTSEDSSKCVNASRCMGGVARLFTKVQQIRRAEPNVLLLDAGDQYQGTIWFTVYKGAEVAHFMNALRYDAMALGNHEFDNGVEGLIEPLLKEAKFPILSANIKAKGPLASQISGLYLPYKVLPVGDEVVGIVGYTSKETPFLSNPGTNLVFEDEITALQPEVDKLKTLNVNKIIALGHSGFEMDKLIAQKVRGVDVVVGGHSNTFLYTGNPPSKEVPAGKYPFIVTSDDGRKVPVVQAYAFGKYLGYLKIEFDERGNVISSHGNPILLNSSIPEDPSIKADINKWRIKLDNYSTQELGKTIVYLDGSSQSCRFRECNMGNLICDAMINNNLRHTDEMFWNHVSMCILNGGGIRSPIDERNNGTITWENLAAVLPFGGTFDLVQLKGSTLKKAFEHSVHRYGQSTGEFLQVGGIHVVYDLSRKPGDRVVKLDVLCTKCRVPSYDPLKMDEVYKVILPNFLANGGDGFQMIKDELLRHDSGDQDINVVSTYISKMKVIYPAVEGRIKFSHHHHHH
Description: cell-based or functional assay.

The target of experiment [3] is T1, CD73 protein on the surface of tumor …. Description: flow cytometry on A375 cells. The procedure:
(§1) MDA-MB-231 cells (triple-negative breast cancer), H292 cells (human lung cancer cells), and A375 cells (human malignant melanoma cells), all in their logarithmic growth phase, were collected respectively. The cells were washed once with RPMI-1640 basic medium and then adjusted to a cell concentration of 2.0×10⁶ cells/mL in RPMI-1640 basic medium containing 1% BSA (antibody diluent). The antibodies to be tested were diluted in a 3-fold gradient using the antibody diluent, and 100 μL of each concentration of the test antibodies was mixed with 100 μL of cells in a 96-well cell culture plate and incubated at 4° C. for 1 hour (the maximum working concentration of the test antibodies was 500 nM, with 1×10⁵ target cells per well). The cells were washed twice with PBS to remove unbound test antibodies. Then, the cells were mixed with 200 μL of 5 μg/mL FITC-labeled goat anti-human IgG-Fc secondary antibody and incubated at 4° C. for 30 minutes. The cells were washed twice again with PBS to remove unbound secondary antibodies, and finally, the cells were resuspended in 200 μL of PBS. The binding affinity of the test antibodies to the cells was determined using a flow cytometer.

Experiment [4] has the same target. Description: flow cytometry on H292 cells. The procedure:
as §1

Experiment [5] addresses T3, cynomolgus monkey CD73 protein (cynomolgus monkey, UniProt A0A2K5V5U7 27-547).
T3 construct: Bought protein; also called CD73-cynomolgus monkey
T3 sequence: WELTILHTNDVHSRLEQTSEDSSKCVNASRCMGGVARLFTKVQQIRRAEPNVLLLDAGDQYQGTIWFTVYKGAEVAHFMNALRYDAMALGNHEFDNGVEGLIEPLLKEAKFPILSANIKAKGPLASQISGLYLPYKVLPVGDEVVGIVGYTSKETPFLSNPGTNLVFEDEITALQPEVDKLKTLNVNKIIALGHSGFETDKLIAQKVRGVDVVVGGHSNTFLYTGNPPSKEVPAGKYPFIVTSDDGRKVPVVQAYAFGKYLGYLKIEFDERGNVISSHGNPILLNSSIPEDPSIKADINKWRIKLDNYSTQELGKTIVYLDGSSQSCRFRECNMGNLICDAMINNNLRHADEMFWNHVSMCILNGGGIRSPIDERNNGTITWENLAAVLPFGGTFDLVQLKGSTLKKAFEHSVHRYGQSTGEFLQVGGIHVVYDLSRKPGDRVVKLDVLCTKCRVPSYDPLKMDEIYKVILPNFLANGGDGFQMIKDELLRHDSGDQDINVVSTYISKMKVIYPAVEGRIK
Description: SPR Biacore 8K, antibody captured on Protein A/G, antigen in flow. On the technique in general: Surface plasmon resonance follows binding to a sensor surface in real time, without labels.

Experiment [6] deals with T2, human CD73-His protein. Description: SPR Biacore 8K, antibody captured on Protein A/G, CD73-his in flow, 1:1 model. The protocol:
Antibodies to be tested were captured using a chip covalently coupled with Protein A/G, with the following operational parameters: antibody concentration of 2 μg/mL, contact time of 75 seconds, flow rate of 10 μL/min, and regeneration contact time of 30 seconds. The CD73-his antigen was diluted in HBS-EP pH 7.4 buffer, with the highest concentration being 100 nM, and diluted in a 2-fold gradient down to 0.78 nM. Duplicate wells and a 0 concentration point were set up. 6M guanidine hydrochloride solution was used as the regeneration buffer. Using the Biacore 8K, the samples were injected with the following parameters: binding time of 180 seconds, dissociation time of 900 seconds, flow rate of 30 μL/min, and regeneration contact time of 30 seconds. After the procedure was completed, the Biacore 8K Evaluation Software was used to analyze the data according to the “1:1 binding kinetics model,” yielding the binding kinetics parameters of each antibody to CD73.

Consider two molecules from patent publication US20250066499A1 (SUNSHINE GUOJIAN PHARMACEUTICAL SHANGHAI, published 2025).

B1: 48A11-HuV33 (antibody, human IgG4, V domains shown)
VH: QVQLVQSGAEVKKPGASVKVSCKASGYTFTSYWMHWVRQAPGQGLEWIGEINPSIGRTNYNEKFKSRVTLTRDTSTSTAYMELSSLRSEDTAVYYCARRVYGTMDYWGQGTLVTVSS
VL: DIQMTQSPSSLSASVGDRVTITCKASQDINSYLSWFQQKPGKSPKLLIYRANIWVDGVPSRFSGSGSGQDYTFTISSLQPEDIATYYCLQYDELYTFGQGTKVEIK
notes: Humanized
As for B1, in experiment [1], the “IC50, inhibition of CD73 enzyme activity on A375 cells” value was determined as 1.48 nM; the “IC50, inhibition of CD73 enzyme activity on H292 cells” value was 0.859 nM; the “IC50, inhibition of CD73 enzyme activity on MDA-MB-231 cells” value came out at 0.566 nM. In experiment [2], the “IC50 (nM), inhibition of enzyme activity of soluble CD73-His (AMP/ATP, Cell Titer-Glo)” value came out at 4.27 nM. Moreover, the EC50 in experiment [3] is 0.789 nM. For the same molecule, the EC50 in experiment [4] was found to be 2.31 nM. In experiment [5], this molecule yielded a Kd of 12.1 nM, a koff of 0.000883 s⁻¹ and a kon of 72800 M⁻¹ s⁻¹. In experiment [6], this molecule registered a Kd of 2.26 nM, a koff of 0.000381 s⁻¹ and a kon of 168000 M⁻¹ s⁻¹.

B2: 56B10-HuV31 (antibody, human IgG4, V domains shown)
VH: QVQLQQSGAEVKKPGASVKVSCKASGYTFTRYYIYWVRQRPGQGLEWIGWIYPGNFNTKYNEKFKGRATLTADTSASTAYMELSSLTSEDTAVYYCARDVYDYAGFAYWGQGTLVTVSS
VL: DIQLTQSPSFLSASVGDRVTITCKASQGVATAVAWYQQKPGQSPKLLIYWASTRHTGVPDRFSGSGSGTEFTLTISSLQPEDFATYYCQQYSSYPWTFGQGTKVEIK
notes: Humanized
Turning to B2, in experiment [1], the “IC50, inhibition of CD73 enzyme activity on A375 cells” value was found to be 1.34 nM; the “IC50, inhibition of CD73 enzyme activity on H292 cells” value was 0.818 nM; the “IC50, inhibition of CD73 enzyme activity on MDA-MB-231 cells” value came to 0.61 nM. Further, the “IC50 (nM), inhibition of enzyme activity of soluble CD73-His (AMP/ATP, Cell Titer-Glo)” value in experiment [2] turned out to be 3.66 nM. The molecule further displayed an EC50 in experiment [3] of 1.27 nM. This molecule also gave an EC50 in experiment [4] of 2.55 nM. Besides, in experiment [5], the Kd turned out to be 7.13 nM, the koff is 0.000712 s⁻¹ and the kon was 99900 M⁻¹ s⁻¹. In experiment [6], the Kd turned out to be 1.89 nM, the koff came out at 0.000376 s⁻¹ and the kon came out at 199000 M⁻¹ s⁻¹.

A word on the EC50: it is the concentration needed to bring the measured effect to its halfway point. For orientation: Kd means the constant that tells how readily two partners part at equilibrium. In general, koff refers to the rate constant with which the complex falls apart. A word on the kon: it is the rate constant with which the complex forms.
